Results reported in the DeepSol protein solubility set.

Experiment: soluble on expression in E. coli; label from the status in PepcDB or PDB records

Sequence | soluble on expression in E. coli
MSLVWKLLGGSKKEFVTPYASLLPDGHTLKEYSDSLVKKTIKAKELGFKAAKLEICIKGPYSHNNLQIEDDREFANMVKLCRKAVGNDMILMADVAYAWPDWKTALIALNMVENEDLFFIETPLPIEDLKGSKKLAEHSKTRIATGEMLQTRFECFETIEKGGIDVIQPDVGRVGGLTEAKRVCDYAEDNGILVVPHCWKSAIGIAASAHLSATTNMCPYIEFLPKELAESQLRKDLVLKELDVVDGQIPLPQQPGLGIEINDDKLKEYGVEGHHHHHH | not soluble
MSLYLCEEHFKEYFERKVARTIEKYKLASKDERILVAVSGGKDSAVTAYVLKKLGYKIECLHLNLGIGEYSEKSEIYAKKQCEFIGAPLNIIRVKELLGYGIGEVRTSRPTCSYCGLTKRYIMNKFAYDNGFDAVATGHNLDDEASFLMNNLLHWNTEYLAKGGPLLPGEGKFVKKIKPLYELTEREVVAYAIAVGLEYIVEECPYARGATTLDMKEVLNELEEKRPGTKFNFVRGFLRKKKLFEPEVKGKDLKECKICGMPASGEICSFCKFWKLGKPLTFKIKEGHHHHHH | soluble
MSLYQRCFDNASETLFVAGKTPRLSRFAFSDDPKWESGHHVHDNETELIYVKKGVARFTIDSSLYVAHADDIVVIERGRLHAVASDVNDPATTCTCALYGFQFQGAEENQLLQPHSCPVIAAGQGKEVIKTLFNELSVILPQSKNSQTSSLWDAFAYTLAILYYENFKNAYRSEQGYIKKDVLIKDILFYLNNNYREKITLEQLSKKFRASVSYICHEFTKEYRISPINYVIQRRMTEAKWSLTNTELSQAEISWRVGYENVDHFAKLFLRHVGCSPSDYRRQFKNCFAEQEILSEFPQPVSLVGEGGSHHHHHH | soluble
MSLYQSIVFIARNVVNSITRILHDHPTNSSLITQTYFITPNHSGKNISFHLFHDFKYCSADTRHYSQLIIFPVKENSRPTQVSRPLGGRPHESVFLPKFTRTQNSYCLTRLDRMGFPPPRKASTIMHFFQDDRTVMCSPKDGIPVSSFHIMICFLERRKGN | soluble
MSLYSIIDIETTGGHASGNRIIEIAIYKFDGEKITDTYQTLINPERRIPVFITSLTGIDTEMVADAPVFADVAREITDFTRDSVFVAHNVNFDYTFVKKELQALNMPYNLPKLCTVRLSRKIFPGLPSYSLGNLCGSLGIDVQNRHRAAGDAEATVRLLNKLLLNDTEGFIPKSLKKNSKETLLPANLPREQFDALPETFGVYYFHDHKGKVIYVGKANNIKKRVISHFSGKQQNQKSQQFMQAIYGLSYEVCGSELLSLLLESHEIKKYFPVYNSIQKFGEKNYGIYQYEDNAGFIRLSIAKVNKLQHPLISFRYISEARTFLLEKVRTFQLCHRRSGLQTAPCSDVELCTACKGTTRSTAYNVKMKRALATFEHPDHSYIIKQPGRTRDEYAVIVVEAGRYLGYAYIPADLSGSTIEELKPFVNRHPDNRDIQKILAMHQRKSMVIAVEGHHHHHH | not soluble
MSLYTVLVADDKEVFRRKVKRMPYFQDHKEKFAIRYEAQNGLEALEILRSHDVDMVLTDIRMPFIDGIELLKHVNAENLCKCVILLSEFAEFNYAKAGILNGAFDYVLKPVDDEKIQETFDRAYNYLTTINAAVNAQTQRIETLARLMLAGDRMNALAYAKHIGAGLQAHGAITGERIVQANDTLAQLNKYILQKRPFLHYYLPFDELCCLDAKKTTPGKISDAFNACVSTVMDAIEPFCVQSTNELVGRTCQLVLEKLDSKVSLHGIADNLYVNPKYLGALFKKETGRSFVDYVTFARMERAKMLLRNPTLKVYEVAAQLGYDDVDYFSKVFKKLTAESPSIYREMRKEGHHHHHH | soluble
MSMEFDAVIIGGGVSGCATFYTLSEYSSLKRVAIVEKCSKLAQISSSAKANSQTIHDGSIETNYTPEKAKKVRLSAYKTRQYALNKGLQNEVIFETQKMAIGVGDEECEFMKKRYESFKEIFVGLEEFDKQKIKELEPNVILGANGIDRHENIIGHGYRKDWSTMNFAKLSENFVEEALKLKPNNQVFLNFKVKKIEKRNDTYAVISEDAEEVYAKFVLVNAGSYALPLAQSMGYGLDLGCLPVAGSFYFVPDLLRGKVYTVQNPKLPFAAVHGDPDAVIKGKTRIGPTALTMPKLERNKCWLKGISLELLKMDLNKDVFKIAFDLMSDKEIRNYVFKNMVFELPIIGKRKFLKDAQKIIPSLSLEDLEYAHGFGEVRPQVLDRTKRKLELGEKKICTHKGITFNMTPSPGATSCLQNALVDSQEIAAYLGESFELERFYKDLSPEELENLEHHHHHH | soluble
MSMSVILRKSLIEVLNKKNEKKKDVAREISTSQQSLSDWTSQNNVKPVTIENALRLSDHFRDSTFTMEVIHQFFGMFKTCDGDVYRKDPSSLDRLQKIESNERKALKHDIERIVLKNPEYLSEQDISKIVAYANEYLDEVIVEITLLSSLCDLASIDIRYLSEQRFPYWEQLGYMRKENTNGTRSY | not soluble
MSMTVTTYLPIEAIKQQFCQSLDEQNTLILSAPPGAGKSTCLPLWLLTLPSLANKKIYLLQPRRLAVKNIATFLAAQLKEKVGETVGYRLRNDSKTSTSTRLEVITEGILTQIIQKDAELLGTALVVFDEFHERSLQGDLAFALTREVQTELRDDLKILLMSA | not soluble
MSNCEIIAVHGGACAKFDASLAEDCRFACGTGTVENALTDLERIEKFNCGFGSHLTIDQEVECEASYMSSKNLSFGAVGAISNVFHPSRVARHLAHSNWWKQRRLLHPLILVGRGAEKYAVKNDFPTCTPEELVSKAAKESFEKYLHRMLHPYDTHDTVGAISINTNTMNSESGTSSGGIVLKHSGRLGHSCVYGSGTWSERRQYEEPFDQVSERTISICSTGHGESLVKADFCRGIATRVLDDEEGIMYSEIIREFIHEKMEHGSRYGGIALIADKFKDRMSLEFLIFHNCRYLPAAVRCRDNQIRVFESQFDPDQCTTDPKCVIESFIM | not soluble
MSNDQSAMNELHWLIDMVQTIEVGLVVLDRDYNIQLWNGFMENHSGVSPNSIKGQNLFSRFPDLPATWLKQKMESVFMLKNRAFISWEQRPYVFQFKNYRPITGRADFMYQNVTLLPLASLTGKITHISVIVYDVTDIAVNKLEHHHHHH | soluble
MSNEEARSAGDLRNTGLSLRHDRTWDYELDRIVDEVERKDAEKVGLQFPEGLKRRGPAVADDLRARLDDTRIMLSGQPCYGACDLDTYLMRRTDVFVHFGHSPMKESDSIIYVPLFSNVDVEPIMQEARDELHDGDVGLVTTAQHMNQFEEMRTWLEERGYTVHTRRGDDRLTNEGQVLGCNYASADIDADQVLYVGGGKFHPLGLAMEHPEKNVVIADPVNNAVSIADAEQFLKERYASVHKAMDAEQWGVIFCTKIGQGRFDQAEEIVENNDNAYLITMDEVTPDRLMNFDMDAFVNTGCPRITTDDGPQFHKPMLTPGEYEIAVGNKPLEDLSFDTFHGTWLEHHHHHH | not soluble
MSNEIYTAITIGPICKTLDKARSVKSFWTASYLFSWIMRELLERLPKEERPEGSFEVLSPHRDGKDVPEETSKKVGLFPDRLFAKGELEEEKLQEIKGKIFIELAEKFKNAFQDEKDGITRKIDTESDPKRKRELEEIQSRYSNAALKGEDIRKYLENYLSISCITVELSSDCNILEQLNSYLDTQELFNKASIQTDEDYMELFIEAPNNPFLKAYSQDRAFPSTSEIAVSGWEQDPPKDENGEVEYTQLTSKPGFRNCYKYLAVIKADGDGFGTYIKELKVDEEKEIKENGEKENELSRFTKSFFEFSVEVANELIQKTKAIPVYIGGDDLFLFAPVLEGNVEKDVFNLIKEIDDLFIQKEIGEGLSMSYGVSIFYYKSPMSEAIDIADSMLRKAKEEKEEKEKKKDTVAISIQKHSGQKIEFLLPCKHSTDKCKQETGLYKKATELIRAFKEDDSMLNSLIYWIEDMYETIFTDEVTLYQERINAVFDNFFDEEIHKENEVFFDLLKKFIHSMHHSEDTPRKLKDKKKLLHGILRYCQFVTAKKEK | not soluble
MSNENKTIHDFELNLICDFFSNMERQGPGSPEVTLKALSFIDNLTEKSLIADIGCGTGGQTMVLAGHVTGQVTGLDFLSGFIDIFNRNARQSGLQNRVTGIVGSMDDLPFRNEELDLIWSEGAIYNIGFERGLNEWRKYLKKGGYLAVSECSWFTDERPAEINDFWMDAYPEIDTIPNQVAKIHKAGYLPVATFILPENCWTDHYFTPKVAAQKIFLTKYAGNKIAEEFSMLQSIEEELYHKYKEYYGYTFFIAKKIRLLEHHHHHH | soluble
MSNFWVIALNKNWATLDQVKEAYYYDDVTKEELKEGVDNNLITPEQYQEIVGEAYTSVTLSTELEHHHHHH | not soluble
